According to publication PMC4383704 (Cancer research, 2015):

Molecular target: mouse uPA (Mus musculus, UniProt P06869)
Test: ELISA

Chain of mouse uPA (P06869 21-433): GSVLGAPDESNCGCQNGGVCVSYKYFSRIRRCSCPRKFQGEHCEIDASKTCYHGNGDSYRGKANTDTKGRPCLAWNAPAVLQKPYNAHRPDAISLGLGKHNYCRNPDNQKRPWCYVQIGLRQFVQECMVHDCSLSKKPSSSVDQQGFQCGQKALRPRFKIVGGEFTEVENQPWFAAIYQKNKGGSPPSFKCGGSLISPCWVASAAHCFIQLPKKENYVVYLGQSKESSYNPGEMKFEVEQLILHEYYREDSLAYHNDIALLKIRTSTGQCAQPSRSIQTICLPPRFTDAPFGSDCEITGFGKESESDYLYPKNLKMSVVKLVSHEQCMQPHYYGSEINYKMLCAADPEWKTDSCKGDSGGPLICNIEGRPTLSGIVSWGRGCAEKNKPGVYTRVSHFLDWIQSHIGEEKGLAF

binding result: no binding (tested: 1 μM)
B1: U33 Fab (Fab, V domains shown)
VH: EVQLVQSGGGLVKPGRSLRLSCTASGFTFGDYAMSWVRQAPGKGLEWVGFIRSKAYGGTTEYAAVKGRFTISRDDSKSIAYLQMNSLKTEDTAVYYCIRGANWNWGQGTLVTVSS
VL: EIVLTQSPLSLPVTPGEPASISCRSSQTLMNRNGNNFLDWYLQKPGQSPQLLIYLGSNRAPGVPDRFSGSGSGTDFTLKISRVEAEDVGVYYCMQRIEFPYTFGQGTKLEIK
